The source of these data is the DeepSol protein solubility set.

The data set is described as follows: soluble on expression in E. coli; label from the status in PepcDB or PDB records.
Regarding “MSYYHHHHHHLESTSLYKKAGSENLYFQGARDQGADEAREYEPGQPGMYELEFPAPQLSSSDGRGPVLVHALEGFSDAGHAIRLAAAHLKAALDTELVASFAIDELLDYRSRRPLMTFKTDHFTHSDDPELSLYALRDSIGTPFLLLAGLEPDLKWERFITAVRLLAERLGVRQTIGLGTVPMAVPHTRPITMTAHSNNRELISDFQPSISEIQVPGSASNLLEYRMAQHGHEVVGFTVHVPHYLTQTDYPAAAQALLEQVAKTGSLQLPLAVLAEAAAEVQAKIDEQVQASAEVAQVVAALERQYDAFIDAQENRSLLTRDEDLPSGDELGAEFERFLAQQAEKKSDDDP”, the “soluble on expression in E. coli” value was “soluble”.

In the case of “MTDTRVLAVANQKGGVAKTTTVASLGAAMVEKGRRVLLVDLDPQGCLTFSLGQDPDKLPVSVHEVLLGEVEPNAVLVTTMEGMTLLPANIDLAGAEAMLLMRAGREYALKRALAKFSDRFDVVIIDCPPSLGVLTLNGLTAADKAIVPLQCEMLAHRGVGQFLRTVADVQQITNPNLRLLGALPTLYDSRTTHTRDVLLDVADRYDLQVLAPPIPRTVRFAEASASGSSVMAGRKNKGAVAYRELAQALLKHWKTGRPLPTFTVDL”, the “soluble on expression in E. coli” value is “soluble”.

With “MGSDKIHHHHHHMRRKIPSTTALVSFEAAARHESFTKAAHELSLTQGAVCRQIGGLEEFLGIELFRRSRRGVKLTEAGLSYSRRVAQQLDAVERDTLSVMGEQGAHAIELAVVPTFGTQWLLPRLKDFQHKHPDVTVHLTNRTRPFLFADTDFDAAIYFGDADWSGTQSHRLMGENSLPVCSPSFLGGRGSLKASELAELPLLQQTTRPYAWRQWFNAQNLNVARDMTGPRYELFSMLAQAAMHDMGVALIPPFLILRELHEKRLVIASISALPSNKAYHLMIPERKVESASLTAFRDWLVNQAHDYSLPQDKEQALV”, the “soluble on expression in E. coli” value is given as “not soluble”.

With “MSTGKIIQVIGAVIDVEFARDNTPKVYDALNVVEAGLVLEVQQQIGDGVVRTIAMGSSDGLRRGMEVKNTNAPISVPVGHGTLGRIMNVLGEPIDEAGPIEYTEKRSIHQAPPAYDELALSTEILETGIKVVDLICPFAKGGKVGLFGGAGVGKTVTMMELINNIAKEHSGYSVFAGVGERTREGNDFYYEMKDSNVLDKVSLVYGQMNEPPGNRLRVALSGLTIAEGFRDEKRDVLMFIDNIYRYTLAGTEVSALLGRMPSAVGYQPTLAAEMGALQERITSTKTGSITSVQAVYVPADDLTDPSPATTFSHLDATIVLSRQIAELGIYPAVDPLDSTSRQLDPLVVGQDHYETARAVQKVLQRYKELKDIIAILGMDELSDEDKKIVDRARKIQRFLSQPFHVAEVFTGNPGKFVSLKDTVASFKAIVNGEYDHLPEQAFYMVGSIQEAIEKAKTL”, the “soluble on expression in E. coli” value is “not soluble”.

Regarding “VIALLAPGQGSQTEGMLSPWLQLPGAADQIAAWSKAADLDLARLGTTASTEEITDTAVAQPLIVAATLLAHQELARRCVLAGKDVIVAGHSVGEIAAYAIAGVIAADDAVALAATRGAEMAKACATEPTGMSAVLGGDETEVLSRLEQLDLVPANRNAAGQIVAAGRLTALEKLAEDPPAKARVRALGVAGAFHTEFMAPALDGFAAAAANIATADPTATLLSNRDGKPVTSAAAAMDTLVSQLTQPVRWDLCTATLREHTVTAIVEFPPAGTLSGIAKRELRGVPARAVKSPADLDELANL”, the “soluble on expression in E. coli” value is on record as “not soluble”.

For the sequence “SISTARVPADKPVRIAFSLNDASDDTPPEDSIPLVFPELDQQLQPLPPCHDSEESMEVFKQHCQIAEEYHEVKKEITLLEQRKKELIAKLDQAEKEKVDAAELVREFEALTEENRTLRLAQSQCVEQLEKLRIQYQKRQGSS”, the “soluble on expression in E. coli” value is listed as “soluble”.

As for “MNQQKSLTLIVALTTSYGIGRSNSLPWKLKKEISYFKRVTSFVPTFDSFESMNVVLMGRKTWESIPLQFRPLKGRINVVITRNESLDLGNGIHSAKSLDHALELLYRTYGSESSVQINRIFVIGGAQLYKAAMDHPKLDRIMATIIYKDIHCDVFFPLKFRDKEWSSVWKKEKHSDLESWVGTKVPHGKINEDGFDYEFEMWTRDL”, the “soluble on expression in E. coli” value is reported as “soluble”.

On to “MGSDKIHHHHHHMSMNHIRPWRNIERRKSRQIHVGNVPVGGDAPIAVQTMTNTLTTDIKGTIAQVQAAADAGADIVRVSVPDEASARALKEIVRESPVPIVADIHFHYKRGIEAAEAGAACLRINPGNIGDEKRVAEVIKAARDHNCSIRIGVNAGSLEKHLLEKYGEPCPDAMVESGLDHIKILQDHDFHEFKISVKASDVFMSAAAYQMLADATDAPIHLGITEAGGLMSGTIKSAIGLGQLLWMGIGDTLRVSLSADPVEEVKVGFEILKSLGLRHRGVNIISCPSCARQGFDVIKTVETLEERLEHIKTPMSLSIIGCVVNGPGEALMTDVGFTGGGAGSGMVYLAGKASHKMSNDQMIDHIVEEVEKKAAALDAQAAEDMKAAE”, for which the “soluble on expression in E. coli” value is listed as “not soluble”.

“AHHHHHHGSRIVVIGSGTAGSNFALFMRKLDRKAEITVIGKEETMQYSPCALPHVISGVIEKPEDVIVFPNEFYEKQRIKLLLNTEAKKIDRERKVVVTDKGEIPYDKLVIATGSKAFVPPIKGVENEGVFTLKSLEDVRKIKEFIKKRNPKNAVVIGAGLIGLEGAEAFAKLGMKVTVVELLEHLLPTMLDKDIAKIVEENMRKYGVDFKFGVGVDEIIGDPVEKVKVGEEEIDADIVLVATGVRANVELAKEAGLEVNRGIVVNEYLQTSDPDIYAIGDCAEVIDAVTGKRTLSQLGTSAVRMAKVAAENIAGRNVKFRPVFNTAITEIFDLEIGAFGITEERAKKEEIEVVVGKFRGSTKPEYYPGGKPIVVKLIFRKEDRRLIGAQIVGGERVWGRIMTLSALAQKGATVEDVVYLETAYAPPISPTIDPITIAAEMAMRKL”: the “soluble on expression in E. coli” value was “soluble”.

“MGLAQSHSRTPSRDPLPNDHQVMDVYEESGPRRGRKRKAAKGSEIEMKKVAKLNTCAYVYQKLFLQGENSDIVLAACGREWRVHKLYLKQTKFFESMFDGLWTESNSGRVQMEITDPNIDADGLNSVLGSLYHNEIEIDLDKIEGTVAAASYIVLDSVTDRCSEMMIEALSTKNAVRFYDVSTKYGLEKVREKSMEVLLHQFWKIMTDREKLNEVDRQLFVTLLNSPNLLIIEGEFDLYKVVKSWIYMREVPDCCKDDSPETFTQNASKFFKESKTSMFIKYADIFASLRIEQFLTCSETIKTVKSDALIPLSIVDEMTSALWSSLLENEESPKTLEMDDDEFFKRCIRLGRSLDSFPKCWRWIGFNFGVDLLLHVNDYSVCIKRNCLNQKAPYSVNLKSKHVLHYRLVICDSNGQILYDSGKTTWEMKPDEARTIYRMSEDLATQISVHFQYLIHQPICSTGHYVNKYLDDQNSTDDEDDEEEEDDDGDDEEDSS”: the “soluble on expression in E. coli” value was “not soluble”.

With “MQLASRFGHVNQIRRDRPLTREELMQVVPSVFGEDKHTSRSENYTWIPTITVLESLQREGFQPFFACQTRVRDPGRRGYTKHMLRLRRDGEINGQHVPEIILLNSHDGTSSYQMLPGYFRFVCQNGCVCGQSLGEVRVPHRGNVVEKVIEGAYEVVGVFDRIEEKRDAMQSLVLPPLARQALAQAALTYRYGDEHQPVTTADILTPRRREDYGKDLWSAYQTIQENMLKGGISGRSAKGKRIHTRAIHSIDTDIKLNRALWVMTETLLENMR”, the “soluble on expression in E. coli” value is “not soluble”.

Turning to “MTRAEVGLVWAQSTSGVIGRGGDIPWSVPEDLTRFKEVTMGHTVIMGRRTWESLPAKVRPLPGRRNVVVSRRPDFVAEGARVAGSLEAALAYAGSDPAPWVIGGAQIYLLALPHATRCEVTEIEIDLRRDDDDALAPALDDSWVGETGEWLASRSGLRYRFHSYRRD”, the “soluble on expression in E. coli” value is listed as “soluble”.

Take “MAEAASCARKGTKYAEGTQPFTVLIEGNIGSGKTTYLNHFEKYKNDICLLTEPVEKWRNVNGVNLLELMYKDPKKWAMPFQSYVTLTMLQSHTAPTNKKLKIMERSIFSARYCFVENMRRNGSLEQGMYNTLEEWYKFIEESIHVQADLIIYLRTSPEVAYERIRQRARSEESCVPLKYLQELHELHEDWLIHQRRPQSCKVLVLDADLNLENIGTEYQRSESSIFDAISSNQQPSPVLVSPSKRQRVAR”: the “soluble on expression in E. coli” value is “soluble”.

As to “MGSDKIHHHHHHMKGFITNIQRMSIHDGPGIRSTIFLKGCNLRCKWCHNPETWSMKPQLQYIEDKCIHCFSCITVCEYEVLFIDSNRLSIHRERCTDCGKCTERCTSGALSWIGKEVDSSDIIHEILQDLIYYQKSGGGITLSGGEPLQQKDFALDILQKCREHRIHTAVETNLLTDVNTLEAFLPWVDLWMCDFKMADDTLHRKWTGHSNVPIIKNLEFLAKQAVPLTIRTPVIPNVNDSEEAIESICRFIRQLPNQPAYELLGFHSLGFVKFENLGMKNPLSNSAFLKKGQLQKLKEILIRYNLNNNKK”, the “soluble on expression in E. coli” value is “not soluble”.
